# Measured values as given in article PMC7532178, “Interaction of protocadherin-15 with the scaffold protein whirlin supports its anchoring of hair-bundle lateral links in cochlear hair cells” (Scientific Reports, 2020).
# No end group written: not given here. *: point of attachment. Biotin = O=C1N[C@H]2[C@H](CS[C@H]2CCCCC(=O)*)N1; TTDS = trioxatridecan-succinamic acid spacer
# T1: harmonin-NTD-PDZ1 (aa 1-192) (UniProt Q9ES64 1-192)
# T1 construct: extra 7 aa at the N-terminus of all recombinant proteins of the study; harmonin, residues 1-192 (NTD and PDZ1), numbers on GenBank AF228925.1; also called NTD-PDZ1-Hp domain of harmonin; source: E. coli BL21 (DE3) codonPlus-RIPL, purified (Glutathione Sepharose 4B, GST removed by TEV proteinase, SEC)
# T1 sequence: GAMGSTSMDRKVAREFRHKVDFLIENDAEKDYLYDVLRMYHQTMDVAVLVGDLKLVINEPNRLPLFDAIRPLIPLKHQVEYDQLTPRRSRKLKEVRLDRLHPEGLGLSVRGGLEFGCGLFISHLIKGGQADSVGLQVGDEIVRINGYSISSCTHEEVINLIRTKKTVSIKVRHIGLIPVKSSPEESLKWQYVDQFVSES
# T2: harmonin-PDZ2 (aa residues 197-308) (UniProt Q9ES64 197-308)
# T2 construct: extra 7 aa at the N-terminus of all recombinant proteins of the study; harmonin, residues 197-308 (PDZ2), numbers on GenBank AF228925.1; also called PDZ2 domain of harmonin; source: E. coli BL21 (DE3) codonPlus-RIPL, purified (Glutathione Sepharose 4B, GST removed by TEV proteinase, SEC)
# T2 sequence: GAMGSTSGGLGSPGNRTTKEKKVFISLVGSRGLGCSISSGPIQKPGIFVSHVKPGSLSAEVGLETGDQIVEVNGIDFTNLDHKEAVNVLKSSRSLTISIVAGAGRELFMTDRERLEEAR
# T3: whirlin-PDZ1 (aa residues 137-228) (mouse, UniProt Q80VW5-1 137-228)
# T3 construct: extra 7 aa at the N-terminus of all recombinant proteins of the study; whirlin, residues 137-228: PDZ1 domain; also called whirlin PDZ1 domain alone; source: E. coli BL21 (DE3) codonPlus-RIPL, purified (Glutathione Sepharose 4B, GST removed by TEV proteinase, SEC)
# T3 sequence: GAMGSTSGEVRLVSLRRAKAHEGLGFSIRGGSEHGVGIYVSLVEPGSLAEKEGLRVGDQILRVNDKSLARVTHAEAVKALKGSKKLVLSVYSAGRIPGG
# Legend:
# Settings in all cases: both partners purified
# [1] = target: T1, harmonin-NTD-PDZ1 (aa 1-192); assay: SPR; harmonin fragments or full-length harmonin-a1 with C-terminal peptides; Fig. S10 and data not shown
# [2] = target: T2, harmonin-PDZ2 (aa residues 197-308); assay: as above
# [3] = target: T3, whirlin-PDZ1 (aa residues 137-228); assay: SPR; ProteOn XPR 36; N-terminally biotinylated peptides captured on a Neutravidin NLC sensor chip, whirlin fragments flowed as analytes at 20 μL/min for 2 min; 250 mM NaCl, 50 mM Tris pH 7.5, 0.5 mM TCEP; steady-state fit Req = (Rmax*C)/(Kd+C); mean of three experiments; Figure 4B shows the responses at 10 μM
Kd [1] [µM],Kd [2] [µM],Kd [3] [µM],Binder
> 200,> 200,34,"{Biotin-TTDS}-MGPWNSLHIPMTKL (C-terminal 14 aa of protocadherin-15 isoform CD3, including the PBM; source: synthetic peptide (Eurogentec); not shown: biotin, N-terminal, kept) [PCDH15-CD3 C-terminal peptide (biotin-TTDS-MGPWNSLHIPMTKL)]"
> 200,> 200,106,"{Biotin-TTDS}-GIDVQPHSQSTSL (C-terminal 13 aa of protocadherin-15 isoform CD1, including the PBM; source: synthetic peptide (Eurogentec); not shown: biotin, N-terminal, kept) [PCDH15-CD1 C-terminal peptide (biotin-TTDS-GIDVQPHSQSTSL)]"
> 200,> 200,147,"{Biotin-TTDS}-GANSEQYNTAL (C-terminal 11 aa of protocadherin-15 isoform CD2, including the PBM; source: synthetic peptide (Eurogentec); not shown: biotin, N-terminal, kept) [PCDH15-CD2 C-terminal peptide (biotin-TTDS-GANSEQYNTAL)]"
